In patent US20140271603A1:
One block for each substance: values may come before it.

Biological target: C3 convertase of the alternative pathway (C3bBb) formed on C3b-coated wells (UniProt P01024)
Assay: cell-based or functional assay

Chain of C3 convertase of the alternative pathway (C3bBb) formed on C3b-coated wells (P01024 749-1663 limits assumed, chain 1 of 3): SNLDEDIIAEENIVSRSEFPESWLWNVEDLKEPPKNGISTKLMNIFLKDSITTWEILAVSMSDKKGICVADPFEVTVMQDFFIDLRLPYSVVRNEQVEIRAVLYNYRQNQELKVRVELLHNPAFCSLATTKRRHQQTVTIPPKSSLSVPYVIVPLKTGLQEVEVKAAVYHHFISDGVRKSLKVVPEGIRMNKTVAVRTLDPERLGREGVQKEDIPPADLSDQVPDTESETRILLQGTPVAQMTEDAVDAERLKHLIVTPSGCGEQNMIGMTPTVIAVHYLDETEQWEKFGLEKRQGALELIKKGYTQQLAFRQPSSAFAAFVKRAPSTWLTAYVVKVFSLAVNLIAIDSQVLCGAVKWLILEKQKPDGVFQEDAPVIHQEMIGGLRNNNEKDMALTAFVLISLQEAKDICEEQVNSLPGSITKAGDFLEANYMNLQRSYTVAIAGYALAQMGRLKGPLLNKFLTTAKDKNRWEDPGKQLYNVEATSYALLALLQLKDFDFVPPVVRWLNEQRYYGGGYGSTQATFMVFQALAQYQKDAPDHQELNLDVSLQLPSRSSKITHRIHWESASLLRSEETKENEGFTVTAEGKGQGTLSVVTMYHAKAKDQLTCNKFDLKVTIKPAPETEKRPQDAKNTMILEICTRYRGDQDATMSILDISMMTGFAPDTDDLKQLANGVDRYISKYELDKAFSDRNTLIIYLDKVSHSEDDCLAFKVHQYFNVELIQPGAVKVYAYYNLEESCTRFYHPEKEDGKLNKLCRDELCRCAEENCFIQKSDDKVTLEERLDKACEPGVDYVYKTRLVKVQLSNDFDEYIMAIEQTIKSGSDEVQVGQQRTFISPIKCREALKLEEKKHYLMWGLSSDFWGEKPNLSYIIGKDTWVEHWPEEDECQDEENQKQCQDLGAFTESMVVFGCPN
Chain of C3 convertase of the alternative pathway (C3bBb) formed on C3b-coated wells (P01024 23-667 limits assumed, chain 2 of 3): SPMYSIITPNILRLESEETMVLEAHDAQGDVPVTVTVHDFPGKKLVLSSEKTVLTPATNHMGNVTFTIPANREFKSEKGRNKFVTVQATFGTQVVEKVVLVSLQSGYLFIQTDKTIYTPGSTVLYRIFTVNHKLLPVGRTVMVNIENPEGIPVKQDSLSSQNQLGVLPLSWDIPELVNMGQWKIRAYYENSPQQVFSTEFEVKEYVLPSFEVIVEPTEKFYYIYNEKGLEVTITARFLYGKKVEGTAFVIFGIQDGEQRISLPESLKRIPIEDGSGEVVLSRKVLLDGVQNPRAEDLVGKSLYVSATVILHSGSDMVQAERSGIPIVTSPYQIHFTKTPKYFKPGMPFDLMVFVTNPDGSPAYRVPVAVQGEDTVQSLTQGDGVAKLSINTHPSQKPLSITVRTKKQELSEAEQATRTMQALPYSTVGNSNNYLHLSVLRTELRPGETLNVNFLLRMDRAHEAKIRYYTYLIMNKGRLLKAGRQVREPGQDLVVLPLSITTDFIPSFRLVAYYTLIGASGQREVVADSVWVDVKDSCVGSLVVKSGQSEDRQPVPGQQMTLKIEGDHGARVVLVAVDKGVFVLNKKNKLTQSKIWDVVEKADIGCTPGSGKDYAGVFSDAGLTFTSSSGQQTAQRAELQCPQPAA
Chain of C3 convertase of the alternative pathway (C3bBb) formed on C3b-coated wells (P00751 260-764 limits assumed, chain 3 of 3, further chain): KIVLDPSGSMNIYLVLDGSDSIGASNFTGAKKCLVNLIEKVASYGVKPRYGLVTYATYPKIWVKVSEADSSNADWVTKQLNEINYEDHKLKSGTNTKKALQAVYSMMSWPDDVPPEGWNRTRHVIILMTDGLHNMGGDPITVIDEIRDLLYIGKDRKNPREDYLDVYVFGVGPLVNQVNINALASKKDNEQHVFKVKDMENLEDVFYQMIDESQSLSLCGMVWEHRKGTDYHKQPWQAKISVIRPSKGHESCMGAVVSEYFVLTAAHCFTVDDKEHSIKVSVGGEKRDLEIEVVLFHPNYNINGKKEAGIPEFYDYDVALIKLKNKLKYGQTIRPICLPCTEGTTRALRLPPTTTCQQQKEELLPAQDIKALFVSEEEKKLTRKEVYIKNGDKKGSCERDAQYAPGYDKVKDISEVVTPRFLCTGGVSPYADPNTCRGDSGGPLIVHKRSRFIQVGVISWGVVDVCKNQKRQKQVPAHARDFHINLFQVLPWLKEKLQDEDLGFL

mean IC50 (printed '1050'), acceleration of the dissociation of C3 convertase, pool plasma: 0.058 µg/mL
Substance: factor H of the pool plasma (ECQ 1) (from UniProt P08603 19-1231)

IC50, acceleration of the dissociation of C3 convertase (sample: Formulated plasma FH, purified protein): 0.0179 µg/mL | IC50, acceleration of the dissociation of C3 convertase (sample: Formulated purified FH plasma): 0.0546 µg/mL | IC50, acceleration of the dissociation of C3 convertase (sample: Plasma FH PBS 1X): 0.0152 µg/mL | IC50, acceleration of the dissociation of C3 convertase (sample: Purified FH plasma PBS 1X): 0.0438 µg/mL
Substance: purified human plasma factor H (batch LFB) (from UniProt P08603 19-1231)

IC50, acceleration of the dissociation of C3 convertase (sample: FH plasma calibrator (The binding site)): 0.0681 µg/mL
Substance: Human Factor H Calibrator NL (The Binding Site, Ref: RP030) (from UniProt P08603 19-1231)
